# Results taken from PMC7157757, “A Novel Combined Scientific and Artistic Approach for the Advanced Characterization of Interactomes: The Akirin/Subolesin Model” (Vaccines, 2020).
# Target: the molecule itself
# Assay: SEC; HiPrep 16/60 Sephacryl S-100 HR; proteins incubated in PBS overnight at 4 °C before dilution in column buffer (50 mM sodium phosphate, 150 mM sodium chloride, pH 7.2); 0.8 mL/min; monomer and dimer
protein,measurement,value
"Recombinant I. scapularis AKR/SUB (natural protein, Akirin/Subolesin (AKR/SUB), Ixodes scapularis, Q4VRW2; also called Subolesin; tick SUB; source: Escherichia coli, Champion pET101 Directional TOPO Expression kit, as previously described [34,35]) not shown",stoichiometry N,2
